Where “and” joins values, the source holds several entries; their conditions need not be identical. Equal values may be shown once. Read-outs that look alike come from different tables or passages of the source. Marks after values point to notes of the source that are not given here. Ends that are not written are not given here.
Columns and labels:
[1] = due to rapid proteolysis and glomerular filtration; cited from earlier work
[2] = Pharmacokinetic study of V681 (V13AD) conjugates, single IV dose in rats; assay type: in vivo, Sprague-Dawley rats; details: 1.0 mg/kg equivalent protein mass IV
Text: The weight range of the animals was 311-346 grams. All animals were food fasted overnight. […] The predose sample was collected from the JVC.
Following the last collection point, the animals were euthanized.

[3] = tested on: rat red blood cells; assay: Hemolysis assay, V681(V13AD) series; assay type: cell-based; details: 37° C., relative to 0.25% Triton X-100
Method: Hemolysis assay. Approximately 10 mL of blood was drawn from one adult rat into Na Heparin tube and kept in ice until use. Red blood cells were washed three times with 10 mL of cold DPBS ((−) CaCl2 and (−) MgCl2) and collected by sequential centrifugation at 3,000 g for 5 min at 4° C. Pellets of red blood cells were resuspended with DPBS ((−) CaCl2 and (−) MgCl2) and the total volume was brought up to initial volume of blood drawn. One mL of resuspended red blood cells was resuspended with 49 mL of DPBS ((−) CaCl2 and (−) MgCl2). Incubation mixture was prepared by 400 fold dilution of stock solution of test compounds with final volume of 800 μl. Final concentration of test compounds was equimolar to that of respective unconjugated compounds. Hemolysis incubation was done at 37° C. with mild agitation.
For releasable conjugates, test compounds were preincubated in 1×PBS at 37° C. prior to hemolysis assay. Incubation mixture was centrifuged at 3,000 g for 5 min at 4° C., and the absorbance at 550 nm was read from supernatant.

[4] = OGF release rate and stability of OGF; assay type: physicochemical; details: 160 hours at 37° C., pH 7.5 and 16 hours at 37° C., pH 10.0
[5] = target: human δ opioid receptor (Homo sapiens, UniProt P41143); assay: Radioligand competition binding assay, biphalin series, δ opioid receptor
Method: (§1) Competition binding experiments were conducted by incubating membrane protein to equilibrium in triplicate in the presence of a fixed concentration of radioligand and increasing concentrations (0.1 nM to 10 μM) of test compound in 100 μL final volume. The radioligands used were specific for each receptor type, and the assay conditions are described in Table BIP6.3. Following incubations, the membranes were rapidly filtered through GF/B filter plate (presoaked with 0.5% polyethyleneimine), washed four times with cold 50 mM Tris-HCl, pH 7.5, and the bound radioactivity was then measured. Non-specific binding was measured in the presence of excess naloxone (100 μM); this value was subtracted from the total binding to yield the specific binding at each test concentration.
(§2) The test compounds were stored under acidic condition to stabilize the PEG conjugation.
(§3) Ki (affinity of test compound) was obtained using the Cheng Prusoff correction using experimental Kd (affinity of radioligand) values that were previously determined under these assay conditions.

[6] = tested on: rat red blood cells; assay: Hemolysis assay, protegrin-1 series; assay type: cell-based; details: for hemolytic effect: rat red blood cells, 37° C., relative to 0.25% Triton X-100
Method: Approximately 10 mL of blood was drawn from one adult rat into Na Heparin tube and kept in ice until use. Red blood cells were washed three times with 10 mL of cold DPBS ((−) CaCl2 and (−) MgCl2) and collected by sequential centrifugation at 3,000 g for 5 min at 4° C. Pellets of red blood cells were resuspended with DPBS ((−) CaCl2 and (−) MgCl2) and the total volume was brought up to initial volume of blood drawn. One mL of resuspended red blood cells was resuspended with 49 mL of DPBS ((−) CaCl2 and (−) MgCl2). Incubation mixture was prepared by 400 fold dilution of stock solution of test compounds with final volume of 800 μl. Final concentration of test compounds was equimolar to that of respective unconjugated compounds. Hemolysis incubation was done at 37° C. with mild agitation. For releasable conjugates, test compounds were preincubated in 1×PBS at 37° C. prior to hemolysis assay. Incubation mixture was centrifuged at 3,000 g for 5 min at 4° C., and the absorbance at 550 nm was read from supernatant.

[7] = Pharmacokinetic study of protegrin conjugates, single IV dose in rats; assay type: in vivo, Sprague-Dawley rats; details: […] equivalent protein mass IV
Method: The weight range of the animals was 313-346 grams. All animals were food fasted overnight.
Following the last collection point, the animals were euthanized. Bioanalytical analysis: analysis of the plasma samples was conducted using non-validated LC-MS/MS methods.

[8] = pH 5
[9] = target: human μ opioid receptor (Homo sapiens, UniProt P35372); assay: Radioligand competition binding assay, biphalin series, μ opioid receptor
Method: as §1, §2, §3

[10] = assay type: physicochemical
[11] = target: T1, GPR54 G-Protein coupled receptor (Homo sapiens, UniProt Q969F8); assay: FLIPR calcium flux agonist assay on GPR54; assay type: cell-based; details: agonist activation at GPR54; no release incubation
T1 construct: host or cells: Chem-1 host cells

[12] = Pre-incubated in assay buffer pH 7.5 at 37° C. (72 h biphalin and di-CAC; 20 h di-C2 and di-SBC)
[13] = protegrin-1 in plasma (released or native)
[14] = test compound in plasma (non-releasable conjugates, native PG-1), Mean ± SD
[15] = sample diluted on the day of the assay (unreleased)

human μ opioid receptor, sequence (P35372 whole entry): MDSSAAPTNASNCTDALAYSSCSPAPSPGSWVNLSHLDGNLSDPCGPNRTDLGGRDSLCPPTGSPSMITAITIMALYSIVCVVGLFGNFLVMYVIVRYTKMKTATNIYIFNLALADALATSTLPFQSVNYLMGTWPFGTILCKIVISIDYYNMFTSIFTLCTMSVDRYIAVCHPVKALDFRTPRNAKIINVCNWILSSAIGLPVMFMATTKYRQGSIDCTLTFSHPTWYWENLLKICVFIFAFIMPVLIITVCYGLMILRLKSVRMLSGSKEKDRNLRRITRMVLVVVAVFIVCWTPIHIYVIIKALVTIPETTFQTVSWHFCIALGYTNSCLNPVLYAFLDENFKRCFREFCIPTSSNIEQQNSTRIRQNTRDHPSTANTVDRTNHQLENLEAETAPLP
human δ opioid receptor, sequence (P41143 whole entry): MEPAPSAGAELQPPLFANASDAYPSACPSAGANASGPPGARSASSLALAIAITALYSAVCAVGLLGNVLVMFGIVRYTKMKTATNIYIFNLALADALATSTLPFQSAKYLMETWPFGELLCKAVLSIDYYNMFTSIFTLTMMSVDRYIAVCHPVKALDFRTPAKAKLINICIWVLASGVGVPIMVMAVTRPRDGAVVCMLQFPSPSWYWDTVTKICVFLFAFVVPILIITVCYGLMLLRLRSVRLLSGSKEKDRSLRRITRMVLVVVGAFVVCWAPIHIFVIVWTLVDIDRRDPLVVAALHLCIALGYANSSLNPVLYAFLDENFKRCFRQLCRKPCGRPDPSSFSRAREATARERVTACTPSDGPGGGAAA
T1 sequence (Q969F8 whole entry): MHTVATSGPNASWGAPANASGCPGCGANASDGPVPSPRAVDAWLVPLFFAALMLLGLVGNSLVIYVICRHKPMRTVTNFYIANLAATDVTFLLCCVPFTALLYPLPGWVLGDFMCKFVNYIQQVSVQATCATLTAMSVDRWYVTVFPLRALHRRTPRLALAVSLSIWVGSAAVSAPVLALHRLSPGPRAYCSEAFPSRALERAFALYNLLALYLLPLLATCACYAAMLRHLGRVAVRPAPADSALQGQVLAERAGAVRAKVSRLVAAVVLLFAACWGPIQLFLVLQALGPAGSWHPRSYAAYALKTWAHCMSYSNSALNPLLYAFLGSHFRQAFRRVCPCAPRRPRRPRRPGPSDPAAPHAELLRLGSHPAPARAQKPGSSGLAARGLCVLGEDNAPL

GHRH: growth hormone releasing hormone, stimulates growth hormone secretion from the anterior pituitary gland
half-life [1]: 0.167 to 0.333 h

[mono]-[mPEG2-20K]-[V681(V13AD)] [NHS-20K-V681 (V13AD)]
AUCINF [2]: 53.0 ± 1.1 µg·h/mL
CL [2]: 0.315 ± 0.0065 mL/min/kg
Cmax [2]: 5210 ± 211 ng/mL
MRT [2]: 7.6 ± 1.1 h
T1/2 [2]: 5.8 ± 1.0 h
Vss [2]: 0.143 ± 0.0237 L/kg
mean AUC as multiple of V681 (V13AD) [2]: 24 times
hemolytic effects [3]: almost eliminated

CSCC[C@H](NC(=O)[C@H](Cc1ccccc1)NC(=O)CNC(=O)CNC(=O)[C@@H](N)Cc1ccc(O)cc1)C(=O)O [OGF, Opioid Growth Factor]
stability of the peptide following pre-incubation [4]: remained stable

[mono]-[mPEG-SMB-30K]-[V681(V13AD)] [SMB-30K-V681 (V13AD)]
AUCINF [2]: 158 ± 43 µg·h/mL
CL [2]: 0.11 ± 0.0267 mL/min/kg
Cmax [2]: 4380 ± 505 ng/mL
MRT [2]: 38.3 ± 18.2 h
T1/2 [2]: 26.6 ± 12.5 h
Vss [2]: 0.235 ± 0.05 L/kg
mean AUC as multiple of V681 (V13AD) [2]: 123 times
hemolytic effects [3]: almost eliminated

(SBC-30K)2-biphalin [Di-mPEG-SBC-30K-biphalin]
Ki (nM), δ Opioid Receptor [5, 12]: not obtained

mono-[mPEG2-CAC-FMOC-40K]-[PG-1] (RGGRLCYCRRRFCVCVGR-NH2; cysteine pairing not given here; also: releasable CAC-PEG2-FMOC 40K PEG, mono-conjugate, site not given here; UniProt P32194 131-148, looked up) [CAC-PEG2-FMOC-40K-PG-1, PG1 conjugate with a releasable linker]
hemolytic effects relative to that from PG1 ([6]; conjugate preincubated for 96 hr in 1XPBS at 37° C.): 60-70%
T1/2 (hr) [7, 13]: 0.13* hr
Tmax [7, 13]: 1.8 min

mono-mPEG-SBC-30K-ziconotide [SBC-ziconotide conjugate]
stability of the conjugate [8]: very unstable

[Protegrin-1]-[PEG-di-ButyrAldehyde-5K]-[Protegrin-1] (RGGRLCYCRRRFCVCVGR-NH2; cysteine pairing not given here; also: two peptide copies linked by PEG-dibutyraldehyde 5K; UniProt P32194 131-148, looked up) [PG-1-PEG-5K-PG-1]
hemolytic effect ([6]; listed as PG1-ButyrALD-5K-PG1): little hemolytic activity
hemolytic effect ([6]; listed as PG1-ButyrALD-PG1): almost eliminated
CL [7, 14]: 2.25 ± 0.154 mL/min/kg
T1/2 [7, 14]: 6.8 ± 0.65 h
Vss [7, 14]: 0.248 ± 0.0221 L/kg

(SPA-2K)2-biphalin [Di-mPEG-SPA-2K-biphalin]
inhibition of specific binding at the highest test concentration ([9]; 10 μM): no measurable inhibition
inhibition of specific binding at the highest test concentration ([5]; 10 μM): no measurable inhibition

C[C@@H](NC(=O)[C@@H](N)Cc1ccc(O)cc1)C(=O)NCC(=O)N[C@@H](Cc1ccccc1)C(=O)NNC(=O)[C@H](Cc1ccccc1)NC(=O)CNC(=O)[C@@H](C)NC(=O)[C@@H](N)Cc1ccc(O)cc1 [Biphalin, reference compound]
Ki [9, 12]: 3.1 nM
Ki [9, 15]: 3.4 nM and 4.7 nM
stability of the peptide following incubation ([10]; 72 hour incubation in assay buffer, pH 7.5 at 37° C.): remained stable

(C2-20K)2-biphalin [Di-C2-PEG2-FMOC-NHS-20K-biphalin]
Ki [9, 12]: 10.1 nM
Ki [9, 15]: 21.7 nM

(CAC-20K)2-biphalin [Di-CAC-PEG2-FMOC-NHS-20K-biphalin]
Ki [9, 12]: 13.7 nM
Ki [9, 15]: 1120 nM

dextran-butyraldehyde-40K-protegrin-1 (RGGRLCYCRRRFCVCVGR-NH2; cysteine pairing not given here; also: dextran-butyraldehyde 40K conjugate; UniProt P32194 131-148, looked up) [Dextran-PG1]
hemolytic effect [6]: almost eliminated

(SBC-30K)2-biphalin
stability of the conjugate ([10]; purification from the reaction mixture, even at acidic pH values): instability

mono-[mPEG2-ButyrAldehyde-40K]-[Kisspeptin-54] (GTSLSPPPESSGSPQQPGLSAPHSRQIPAPQGAVLVQREKDLPNYNWNSFGLRF-NH2; also: mPEG2-ButyrAldehyde 40K conjugate, site not given here; UniProt Q15726 68-121, looked up) [Ald40K-KP54]
EC50 (nM) [11]: No activity

From patent US20110166063A1 (priority 2008, published 2011)
